# Several values for one entry are separate records, joined by “and”; a condition that tells them apart may be missing. Equal values may be shown once.
# B1: irisin: secreted cleaved form of FNDC5; recombinant human/mouse irisin with C-terminal his tag produced in HEK293 cells (protein)
# chain: DSPSAPVNVTVRHLKANSAVVSWDVLEDEVVIGFAISQQKKDVRMLRFIQEVNTTTRSCALWDLEEDTEYIVHVQAISIQGQSPASEPVLFKTPREAEKMASKNKDEVTMKE
# modifications: left off: small tags and cut ends
# notes: secreted cleaved form of FNDC5; recombinant human/mouse irisin with C-terminal his tag produced in HEK293 cells
# System: MLO-Y4 cells
# Test: Anti-apoptosis assay: H2O2-induced cell death of MLO-Y4 osteocytes
# Assay type: cell-based
# Experimental: Cells were stained with Hoechst 33342 and Eth-D1, and analyzed to determine the percentage of cell death. *: p<0.05, ***: p<0.001 vs 0.3 mM H2O2 treated condition. […] MLO-Y4 cells were seeded and incubated until 60% cell density. The cells were incubated with Freestyle293 medium for 4 hours and were treated with indicated concentrations of irisin for 16 hours. Sclerostin mRNA level was analyzed by qRT-PCR. Cyclophilin was used as a control house-keeping gene.
# Certain materials and methods were used to generate the results described herein. […] Cells were stained with Hoechst 33342 (ThermoFisher Scientific, catalog number H3570) and Eth-D1 (ThermoFisher Scientific, catalog number E1169) and analyzed to determine the percentage of cell death using ImageJ. […] Co-precipitated irisin was analyzed by immunoblot analysis against flag tag (Sigma Aldrich, catalog number A8592). The data shown in FIGS. 5A and 5B were generated from MLO-Y4 cells treated and analyzed as in the experiments used to generate the data shown in FIG. 2D, except that pre-treatment of 100 nM RGDS (FIG. 5A) or echistatin (R & D Systems Inc., catalog number 3202/100U) (FIG. 5B) for 10 minutes was performed before irisin treatment. […] Sclerostin mRNA level was analyzed by qPCR (FIG. 7A). […] Epididymal fats were collected, RNAs were extracted from the tissues, and mRNA levels of the indicated genes were analyzed by qPCR. […]
molecule,measurement,setting,value
B1,concentration as low as which irisin prevented osteocyte cell death,"MLO-Y4, 0.3 mM H2O2, dose dependent",1 ng/ml and 70 pM
same,concentrations at which irisin reduced hydrogen peroxide-induced apoptosis,"MLO-Y4, hydrogen peroxide",1 to 500 ng/mL
